Experimental data as given in paper PMC8809517, “Cofactor-independent RNA editing by a synthetic S-type PPR protein”.
Numbering of substitutions follows the chain as printed.

T1: GFP-9S library array, motif 4 ND N98V;D124T (synthetic construct, N98V;D124T)
T1 chain: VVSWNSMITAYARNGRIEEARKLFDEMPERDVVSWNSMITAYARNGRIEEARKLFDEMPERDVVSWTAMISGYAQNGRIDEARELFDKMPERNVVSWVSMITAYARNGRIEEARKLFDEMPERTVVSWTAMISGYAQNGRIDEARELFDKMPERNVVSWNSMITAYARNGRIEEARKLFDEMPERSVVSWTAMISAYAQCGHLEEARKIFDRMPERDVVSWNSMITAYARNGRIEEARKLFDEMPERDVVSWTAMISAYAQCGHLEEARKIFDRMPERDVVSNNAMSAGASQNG

T2: GFP-9S library array, motif 4 ND N98S;D124K (synthetic construct, N98S;D124K)
T2 chain: T1 chain with V98S, T124K

T3: GFP-9S library array, motif 4 ND N98I;D124T (synthetic construct, N98I;D124T)
T3 chain: T1 chain with V98I

T4: GFP-9S library array, motif 4 ND D124T (synthetic construct, D124T)
T4 chain: T1 chain with V98N

T5: GFP-9S library array, motif 4 ND N98L (synthetic construct, N98L)
T5 chain: T1 chain with V98L, T124D


Tests used:
Experiment in all cases: high-throughput RNA pulldown from lysate on Ni-NTA beads; HRP: 50 mM Tris pH 8, 150 mM NaCl, 1 mM beta-mercaptoethanol, 50 ug/ml BSA, 3 ug/ml yeast RNA, 0.5% heparin; ITC and FP: Tris pH 8, 200 mM KCl, 5% glycerol; MST: 50 mM Tris pH 8, 200 mM NaCl, 1 mM DTT, BSA, heparin, 0.05% Tween 20
Conditions in all cases: tags: N-terminal His-eGFP
[1] = target: T1, GFP-9S library array, motif 4 ND …
[2] = target: T2, GFP-9S library array, motif 4 ND …
[3] = target: T3, GFP-9S library array, motif 4 ND …
[4] = target: T4, GFP-9S library array, motif 4 ND D124T
[5] = target: T5, GFP-9S library array, motif 4 ND N98L

| Binder | Kd ([1]; label: 5' IRDye 800CW) [nM] | Kd ([2]; label: 5' IRDye 800CW) [nM] | Kd ([3]; label: 5' IRDye 800CW) [nM] | Kd ([4]; label: 5' IRDye 800CW) [nM] | Kd ([5]; label: 5' IRDye 800CW) [nM] | Kd ([1]; label: 5' Cy5) [nM] | Kd ([2]; label: 5' Cy5) [nM] | Kd ([3]; label: 5' Cy5) [nM] | Kd ([4]; label: 5' Cy5) [nM] | Kd ([5]; label: 5' Cy5) [nM] |
| --- | --- | --- | --- | --- | --- | --- | --- | --- | --- | --- |
| AUUAUACGUGA (ssRNA) [IR-rpoA-U] | 29.3 | 105 | 59.1 | 24.6 | 66.3 |  |  |  |  |  |
| AUUAAACGUGA (ssRNA) [IR-rpoA-A] | 36.3 | 134 | 158 | 215 | 452 |  |  |  |  |  |
| AUUACACGUGA (ssRNA) [Cy5-rpoA] |  |  |  |  |  | 89.3 | 86.7 | 141 | 8.35 | 214 |
| AUUAGACGUGA (ssRNA) [Cy5-rpoA-G] |  |  |  |  |  | 86.7 | 104 | 145 | 291 | 183 |
